B1: P04844 (protein, UniProt P04844 1-631, looked up)
chain: MAPPGSSTVFLLALTIIASTWALTPTHYLTKHDVERLKASLDRPFTNLESAFYSIVGLSSLGAQVPDAKKACTYIRSNLDPSNVDSLFYAAQASQALSGCEISISNETKDLLLAAVSEDSSVTQIYHAVAALSGFGLPLASQEALSALTARLSKEETVLATVQALQTASHLSQQADLRSIVEEIEDLVARLDELGGVYLQFEEGLETTALFVAATYKLMDHVGTEPSIKEDQVIQLMNAIFSKKNFESLSEAFSVASAAAVLSHNRYHVPVVVVPEGSASDTHEQAILRLQVTNVLSQPLTQATVKLEHAKSVASRATVLQKTSFTPVGDVFELNFMNVKFSSGYYDFLVEVEGDNRYIANTVELRVKISTEVGITNVDLSTVDKDQSIAPKTTRVTYPAKAKGTFIADSHQNFALFFQLVDVNTGAELTPHQTFVRLHNQKTGQEVVFVAEPDNKNVYKFELDTSERKIEFDSASGTYTLYLIIGDATLKNPILWNVADVVIKFPEEEAPSTVLSQNLFTPKQEIQHLFREPEKRPPTVVSNTFTALILSPLLLLFALWIRIGANVSNFTFAPSTIIFHLGHAAMLGLMYVYWTQLNMFQTLKYLAILGSVTFLAGNRMLAQQAVKRTAH
modifications: full-length
B2: ASPH (protein)
chain: MAQRKNAKSSGNSSSSGSGSGSTSAGSSSPGARRETKHGGHKNGRKGGLSGTSFFTWFMVIALLGVWTSVAVVWFDLVDYEEVLGKLGIYDADGDGDFDVDDAKVLLGLKERSTSEPAVPPEEAEPHTEPEEQVPVEAEPQNIEDEAKEQIQSLLHEMVHAEHVEGEDLQQEDGPTGEPQQEDDEFLMATDVDDRFETLEPEVSHEETEHSYHVEETVSQDCNQDMEEMMSEQENPDSSEPVVEDERLHHDTDDVTYQVYEEQAVYEPLENEGIEITEVTAPPEDNPVEDSQVIVEEVSIFPVEEQQEVPPETNRKTDDPEQKAKVKKKKPKLLNKFDKTIKAELDAAEKLRKRGKIEEAVNAFKELVRKYPQSPRARYGKAQCEDDLAEKRRSNEVLRGAIETYQEVASLPDVPADLLKLSLKRRSDRQQFLGHMRGSLLTLQRLVQLFPNDTSLKNDLGVGYLLIGDNDNAKKVYEEVLSVTPNDGFAKVHYGFILKAQNKIAESIPYLKEGIESGDPGTDDGRFYFHLGDAMQRVGNKEAYKWYELGHKRGHFASVWQRSLYNVNGLKAQPWWTPKETGYTELVKSLERNWKLIRDEGLAVMDKAKGLFLPEDENLREKGDWSQFTLWQQGRRNENACKGAPKTCTLLEKFPETTGCRRGQIKYSIMHPGTHVWPHTGPTNCRLRMHLGLVIPKEGCKIRCANETKTWEEGKVLIFDDSFEHEVWQDASSFRLIFIVDVWHPELTPQQRRSLPAI
B3: SERPINH1 (protein)
chain: AEVKKPAAAAAPGTAEKLSPKAATLAERSAGLAFSLYQAMAKDQAVENILVSPVVVASSLGLVSLGGKATTASQAKAVLSAEQLRDEEVHAGLGELLRSLSNSTARNVTWKLGSRLYGPSSVSFADDFVRSSKQHYNCEHSKINFRDKRSALQSINEWAAQTTDGKLPEVTKDVERTDGALLVNAMFFKPHWDEKFHHKMVDNRGFMVTRSYTVGVMMMHRTGLYNYYDDEKEKLQIVEMPLAHKLSSLIILMPHHVEPLERLEKLLTKEQLKIWMGKMQKKAVAISLPKGVVEVTHDLQKHLAGLGLTEAIDKNKADLSRMSGKKDLYLASVFHATAFELDTDGNPFDQDIYGREELRSPKLFYADHPFIFLVRDTQSGSLLFIGRLVRPKGDKMRDEL
B4: P10809 (protein, UniProt P10809 1-573, looked up)
chain: MLRLPTVFRQMRPVSRVLAPHLTRAYAKDVKFGADARALMLQGVDLLADAVAVTMGPKGRTVIIEQSWGSPKVTKDGVTVAKSIDLKDKYKNIGAKLVQDVANNTNEEAGDGTTTATVLARSIAKEGFEKISKGANPVEIRRGVMLAVDAVIAELKKQSKPVTTPEEIAQVATISANGDKEIGNIISDAMKKVGRKGVITVKDGKTLNDELEIIEGMKFDRGYISPYFINTSKGQKCEFQDAYVLLSEKKISSIQSIVPALEIANAHRKPLVIIAEDVDGEALSTLVLNRLKVGLQVVAVKAPGFGDNRKNQLKDMAIATGGAVFGEEGLTLNLEDVQPHDLGKVGEVIVTKDDAMLLKGKGDKAQIEKRIQEIIEQLDVTTSEYEKEKLNERLAKLSDGVAVLKVGGTSDVEVNEKKDRVTDALNATRAAVEEGIVLGGGCALLRCIPALDSLTPANEDQKIGIEIIKRTLKIPAMTIAKNAGVEGSLIVEKIMQSSSEVGYDAMAGDFVNMVEKGIIDPTKVVRTALLDAAGVASLLTTAEVVVTEIPKEEKDPGMGAMGGMGGGMGGGMF
modifications: full-length
B5: P4HA1 (protein)
chain: HPGFFTSIGQMTDLIHTEKDLVTSLKDYIKAEEDKLEQIKKWAEKLDRLTSTATKDPEGFVGHPVNAFKLMKRLNTEWSELENLVLKDMSDGFISNLTIQRQYFPNDEDQVGAAKALLRLQDTYNLDTDTISKGNLPGVKHKSFLTAEDCFELGKVAYTEADYYHTELWMEQALRQLDEGEISTIDKVSVLDYLSYAVYQQGDLDKALLLTKKLLELDPEHQRANGNLKYFEYIMAKEKDVNKSASDDQSDQKTTPKKKGVAVDYLPERQKYEMLCRGEGIKMTPRRQKKLFCRYHDGNRNPKFILAPAKQEDEWDKPRIIRFHDIISDAEIEIVKDLAKPRLRRATISNPITGDLETVHYRISKSAWLSGYENPVVSRINMRIQDLTGLDVSTAEELQVANYGVGGQYEPHFDFARKDEPDAFKELGTGNRIATWLFYMSDVSAGGATVFPEVGASVWPKKGTAVFWYNLFASGEGDYSTRHAACPVLVGNKWVSNKWLHERGQEFRRPCTLSELE
B6: PDIA3 (protein)
chain: SDVLELTDDNFESRISDTGSAGLMLVEFFAPWCGHCKRLAPEYEAAATRLKGIVPLAKVDCTANTNTCNKYGVSGYPTLKIFRDGEEAGAYDGPRTADGIVSHLKKQAGPASVPLRTEEEFKKFISDKDASIVGFFDDSFSEAHSEFLKAASNLRDNYRFAHTNVESLVNEYDDNGEGIILFRPSHLTNKFEDKTVAYTEQKMTSGKIKKFIQENIFGICPHMTEDNKDLIQGKDLLIAYYDVDYEKNAKGSNYWRNRVMMVAKKFLDAGHKLNFAVASRKTFSHELSDFGLESTAGEIPVVAIRTAKGEKFVMQEEFSRDGKALERFLQDYFDGNLKRYLKSEPIPESNDGPVKVVVAENFDEIVNNENKDVLIEFYAPWCGHCKNLEPKYKELGEKLSKDPNIVIAKMDATANDVPSPYEVRGFPTIYFSPANKKLNPKKYEGGRELSDFISYLQREATNPPVIQEEKPKKKKKAQEDL
B7: RPN1 (protein)
chain: ASSEAPPLINEDVKRTVDLSSHLAKVTAEVVLAHLGGGSTSRATSFLLALEPELEARLAHLGVQVKGEDEEENNLEVRETKIKGKSGRFFTVKLPVALDPGAKISVIVETVYTHVLHPYPTQITQSEKQFVVFEGNHYFYSPYPTKTQTMRVKLASRNVESYTKLGNPTRSEDLLDYGPFRDVPAYSQDTFKVHYENNSPFLTITSMTRVIEVSHWGNIAVEENVDLKHTGAVLKGPFSRYDYQRQPDSGISSIRSFKTILPAAAQDVYYRDEIGNVSTSHLLILDDSVEMEIRPRFPLFGGWKTHYIVGYNLPSYEYLYNLGDQYALKMRFVDHVFDEQVIDSLTVKIILPEGAKNIEIDSPYEISRAPDELHYTYLDTFGRPVIVAYKKNLVEQHIQDIVVHYTFNKVLMLQEPLLVVAAFYILFFTVIIYVRLDFSITKDPAAEARMKVACITEQVLTLVNKRIGLYRHFDETVNRYKQSRDISTLNSGKKSLETEHKALTSEIALLQSRLKTEGSDLCDRVSEMQKLDAQVKELVLKSAVEAERLVAGKLKKDTYIENEKLISGKRQELVTKIDHILDAL
B8: AP2B1 (protein)
chain: TDSKYFTTNKKGEIFELKAELNNEKKEKRKEAVKKVIAAMTVGKDVSSLFPDVVNCMQTDNLELKKLVYLYLMNYAKSQPDMAIMAVNSFVKDCEDPNPLIRALAVRTMGCIRVDKITEYLCEPLRKCLKDEDPYVRKTAAVCVAKLHDINAQMVEDQGFLDSLRDLIADSNPMVVANAVAALSEISESHPNSNLLDLNPQNINKLLTALNECTEWGQIFILDCLSNYNPKDDREAQSICERVTPRLSHANSAVVLSAVKVLMKFLELLPKDSDYYNMLLKKLAPPLVTLLSGEPEVQYVALRNINLIVQKRPEILKQEIKVFFVKYNDPIYVKLEKLDIMIRLASQANIAQVLAELKEYATEVDVDFVRKAVRAIGRCAIKVEQSAERCVSTLLDLIQTKVNYVVQEAIVVIRDIFRKYPNKYESIIATLCENLDSLDEPDARAAMIWIVGEYAERIDNADELLESFLEGFHDESTQVQLTLLTAIVKLFLKKPSETQELVQQVLSLATQDSDNPDLRDRGYIYWRLLSTDPVTAKEVVLSEKPLISEETDLIEPTLLDELICHIGSLASVYHKPPNAFVEGSHGIHRKHLPIHHGSTDAGDSPVGTTTATNLEQPQVIPSQGDLLGDLLNLDLGPPVNVPQVSSMQMGAVDLLGGGLDSLVGQSFIPSSVPATFAPSPTPAVVSSGLNDLFELSTGIGMAPGGYVAPKAVWLPAVKAKGLEISGTFTHRQGHIYMEMNFTNKALQHMTDFAIQFNKNSFGVIPSTPLAIHTPLMPNQSIDVSLPLNTLGPVMKMEPLNNLQVAVKNNIDVFYFSCLIPLNVLFVEDGKMERQVFLATWKDIPNENELQFQIKECHLNADTVSSKLQNNNVYTIAKRNVEGQDMLYQSLKLTNGIWILAELRIQPGNPNYTLSLKCRAPEVSQYIYQVYDSILKN

Tested on: proteins that co-immunoprecipitated with DUX4-CTD constructs expressed in MB135 myoblasts
Assay: LC-MS of proteins co-immunoprecipitated with DUX4-CTD (Table 1) and western validation
Format: binding, human
Set-up: key to 4. mL1dL2 + Dox + IFNG / 4. + IFNG mix / 4. longCTD + Dox + IFNG / 3. + IFNg + Dox longCTD / 3. + Dox longCTD / 3. + IFNG longCTD: peptide-spectrum matches (PSMs) per protein
Settings: for 3. + IFNg + Dox longCTD: experiment 3, IFNg + Dox; for SUM of PSMS: sum over all samples
In short: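 Two independent experiments compared uninduced, doxycycline and doxycycline+IFNG MB135iDUX4-CTD (plus MB135iDUX4mL1dL2) myoblasts. Anti-FLAG pulldowns (3 h, 4 °C) were eluted in LDS buffer for western validation or with FLAG peptide for trypsin digestion and Orbitrap LC-MS; hits needed ≥2 PSMs in both experiments, ranked by total PSMs.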

[1] = LC-MS counts of the listed protein co-immunoprecipitated with DUX4-CTD bait mL1dL2, experiment 4, Dox + IFNG
[2] = LC-MS value per protein co-immunoprecipitated with DUX4-CTD construct mL1dL2 in MB135 myoblasts, + Dox + IFNG, kind of count not given
[3] = LC-MS value per protein co-immunoprecipitated from MB135 myoblasts, + IFNG mix sample (no Dox), kind of count not given

Molecule | 4. mL1dL2 + Dox + IFNG [2] | 4. + IFNG mix [3] | also measured
B1 |  |  | 4. mL1dL2 + Dox + IFNG [1]: 3; 3. + IFNg + Dox longCTD (bait longCTD): 4; SUM of PSMS: 7
B2 | 1 |  | 
B3 | 5 | 5 | 
B4 |  |  | 4. longCTD + Dox + IFNG (LC-MS counts of the listed protein co-immunoprecipitated with DUX4-CTD bait longCTD, experiment 4, Dox + IFNG): 5; 4. mL1dL2 + Dox + IFNG [1]: 4; 4. + IFNG mix (LC-MS counts of the listed protein in anti-FLAG co-IP, experiment 4, IFNG, no doxycycline, mix, MB135 myoblasts): 5; 3. + Dox longCTD (bait longCTD, experiment 3, Dox only): 1; 3. + IFNg + Dox longCTD (bait longCTD): 2; SUM of PSMS: 17
B5 | 27 | 1 | 
B6 | 3 | 9 | 
B7 | 7 | 2 | 
B8 | 1 |  | 

— patent US20250339531A1, “DUX4 POLYPEPTIDES AND NUCLEIC ACIDS FOR TREATING INFLAMMATORY AND AUTOIMMUNE CONDITIONS” (Fred Hutchinson Cancer Center, priority 2021, published 2025)
